Laboratory results taken from US9266964.
Numbering of substitutions follows the chain as printed.

B1: M7-E07 (Fab, V domains shown)
VH: EVQLLESGGGLVQPGGSLRLSCAASGFTFSWYLMIWVRQAPGKGLEWVSYIYPSGGFTYYADSVKGRFTISRDNSKNTLYLQMNSLRAEDMAVYYCARTEGPLSWGYGMDVWGQGTTVTVSS
VL: not shown
notes: Printed HC runs from VH into the start of CH1
B2: X67-B03 (antibody, V domains shown)
VH: EVQLLESGGGLVQPGGSLRLSCAASGFTFSAYSMIWVRQAPGKGLEWVSYIRPSGGRTTYADSVKGRFTISRDNSKNTLYLQMNSLRAEDTAVYYCARGGLLLWSRELKSNYFDYWGQGTLVTVSS
VL: DIQMTQSPSSLSAFVGDRVTITCRASQPIDNYLNWYHQKPGKAPKLLIYAASRLQSGVPSRLSGSGFGTDFTLTISSLQPEDFGNYYCQQSYTVPYTFGGGTKVEIR
notes: Single point mutant (F to S at P2 of HC CDR3) of M142-H08; Only variable domains and the start of CH1 are printed; also called 559A-X67-B03
B3: X67-F10 (antibody, V domains shown)
VH: B2 VH with S105T
VL: B2 VL
notes: Single point mutant (F to T at P2 of HC CDR3) of M142-H08; Only variable domains and the start of CH1 are printed; also called 559A-X67-F10
B4: X67-G04 (antibody, V domains shown)
VH: B2 VH with S105A
VL: B2 VL
notes: Single point mutant (F to A at P2 of HC CDR3) of M142-H08; Only variable domains and the start of CH1 are printed; also called 559A-X67-G04
B5: X67-D03 (antibody, V domains shown)
VH: B2 VH with S105N
VL: B2 VL
notes: Single point mutant (F to N at P2 of HC CDR3) of M142-H08; Only variable domains and the start of CH1 are printed; also called 559A-X67-D03
B6: X67-C09 (antibody, V domains shown)
VH: B2 VH with S105G
VL: B2 VL
notes: Single point mutant (F to G at P2 of HC CDR3) of M142-H08; Only variable domains and the start of CH1 are printed; also called 559A-X67-C09
B7: X67-F01 (antibody, V domains shown)
VH: B2 VH with S105Q
VL: B2 VL
notes: Single point mutant (F to Q at P2 of HC CDR3) of M142-H08; Only variable domains and the start of CH1 are printed; also called 559A-X67-F01
B8: X67-E04 (antibody, V domains shown)
VH: B2 VH with S105D
VL: B2 VL
notes: Single point mutant (F to D at P2 of HC CDR3) of M142-H08; Only variable domains and the start of CH1 are printed; also called 559A-X67-E04
B9: X67-H04 (antibody, V domains shown)
VH: B2 VH with S105E
VL: B2 VL
notes: Single point mutant (F to E at P2 of HC CDR3) of M142-H08; Only variable domains and the start of CH1 are printed; also called 559A-X67-H04
B10: X67-C03 (antibody, V domains shown)
VH: B2 VH with S105M
VL: B2 VL
notes: Single point mutant (F to M at P2 of HC CDR3) of M142-H08; the printed HC is used; Only variable domains and the start of CH1 are printed; also called 559A-X67-C03
B11: M6-D09 (Fab, V domains shown)
VH: EVQLLESGGGLVQPGGSLRLSCAASGFTFSFYYMVWVRQAPGKGLEWVSVIYPSGGITVYADSVKGRFTISRDNSKNTLYLQMNSLRAEDTAVYYCARDKWAVMPPYYYYAMDVWGQGTTVTVSS
VL: DIQMTQSPSSLSASVGDRVTITCRASQSIRNYLNWYQQKPGKAPNLLIYAASTLQSGVPARFSGSGSGTDFTLTISSLQPEDFATYYCQQLSGYPHTFGQGTKLEIK
notes: Printed HC runs from VH into the start of CH1; also called M06-D09; 559A-M06-D09
B12: M7-B04 (Fab, V domains shown)
VH: EVQLLESGGGLVQPGGSLRLSCAASGFTFSWYSMVWVRQAPGKGLEWVSSISPSGGLTNYADSVKGRFTISRDNSKNTLYLQMNSLRAEDTAVYYCARHTAARPFYYYYMDVWGKGTTVTVSS
VL: QSALTQPASVSGSPGQSITISCTGTNSDVGNYNLVSWYQQHPGEAPKLLIYEVNKRPSGVSNRFSGSKSGNTASLTISGLQAEDEADYLCCSYAGNRNFYVFGAGTKVTVL
notes: as for B1
B13: X81-B01 (antibody, V domains shown)
VH: EVQLLESGGGLVQPGGSLRLSCAASGFTFSHYLMTWVRQAPGKGLEWVSYISPSGGHTIYADSVKGRFTISRDNSKNTLYLQMNSLRAEDTAVYYCARVARGIAARSRTSYFDYWGQGTLVTVSS
VL: EIVLTQSPGTLSLSPGERATLSCRTSQFVNSNYLAWYQQKPGQAPRLLIYGASSRATGIPDRFSGSGSGTDFTLTISRLEPEDFAVYYCQQSSRTPWTFGQGTKVEIK
notes: No variable domains are printed under the name X81-B01; also called germlined, codon optimized IgG version of X63-G06
B14: M10-F10 (Fab, V domains shown)
VH: EVQLLESGGGLVQPGGSLRLSCAASGFTFSFYNMNWVRQAPGKGLEWVSSISPSGGETNYADSVKGRFTISRDNSKNTLYLQMNSLRAEDTAVYYCARGGGAYRNNWWGGFDIWGLGTMVTVSS
VL: DIQMTQSPSSLSASVGDRVTITCRASQSISVYLNWYQHKPGKAPKLLIYGASNLQFGVPSRFSGSGYGTDFTLTISSLQPEDFATYHCQQTFSLFTFGGGTKVEIK
notes: as for B1
B15: M8-A09 (Fab, V domains shown)
VH: EVQLLESGGGLVQPGGSLRLSCAASGFTFSTYFMLWVRQAPGKGLEWVSSIYPSGGNTVYADSVKGRFTISRDNSKNTLYLQMNSLRAEDTAVYYCARAASPVRNYYYYGMDVWGQGTTVTVSS
VL: QCELTQPPSESVSPGQTANITCSGDKLGNKYAYWYQQKPGQSPVLVIYQDNNRPSGIPERFSGSNSGNTATLTISGTQAIDEANYYCQAWDSRTVVFGGGTKLTVL
notes: as for B1
B16: M205-H01 (Fab, V domains shown)
VH: B13 VH with H31N, L33T, T35Q, E46Q, H57Y, I59G
VL: B13 VL with E1D, V3Q, L4M, K40T, S66T, S68Y, F84Y, A85G, V86T, K104R
B17: M205-F03 (Fab, V domains shown)
VH: B13 VH with H31S, Y32Q, L33Q, T35V, H57N, I59Y
VL: B13 VL with E1D, V3Q, L4M, K40T, S66T, S68Y, F84Y, A85G, V86T, K104R
B18: M210-A06 (Fab, V domains shown)
VH: B13 VH with Y111Q
VL: B13 VL with E1D, V3Q, L4M, K40T, S66T, S68Y, F84Y, A85G, V86T, K104R
B19: M203-A03 (Fab, V domains shown)
VH: B13 VH with H31V, L33M, T35I, Y50S, H57Q, I59T
VL: B13 VL with E1D, V3Q, L4M, K40T, S66T, S68Y, F84Y, A85G, V86T, K104R
B20: M207-A01 (Fab, V domains shown)
VH: B13 VH with A104S, Y111C
VL: B13 VL with E1D, V3Q, L4M, K40T, S66T, S68Y, F84Y, A85G, V86T, K104R
B21: M207-C05 (Fab, V domains shown)
VH: B13 VH with A100G, Y114K
VL: B13 VL with E1D, V3Q, L4M, K40T, S66T, S68Y, F84Y, A85G, V86T, K104R
B22: M209-G01 (Fab, V domains shown)
VH: B13 VH with R101Q, A104S, A105G, T109L, F112V
VL: B13 VL with E1D, V3Q, L4M, K40T, S66T, S68Y, F84Y, A85G, V86T, K104R
B23: M209-H07 (Fab, V domains shown)
VH: B13 VH with S107Q, F112Y
VL: B13 VL with E1D, V3Q, L4M, K40T, S66T, S68Y, F84Y, A85G, V86T, K104R
B24: M209-D02 (Fab, V domains shown)
VH: B13 VH with A104T, Y114D
VL: B13 VL with E1D, V3Q, L4M, K40T, S66T, S68Y, F84Y, A85G, V86T, K104R
B25: M205-B04 (Fab, V domains shown)
VH: B13 VH with H31N, L33D, T35I, Y50S, P53S, H57T, I59K
VL: B13 VL with E1D, V3Q, L4M, K40T, S66T, S68Y, F84Y, A85G, V86T, K104R
B26: M209-E03 (Fab, V domains shown)
VH: B13 VH with V99Q
VL: B13 VL with E1D, V3Q, L4M, K40T, S66T, S68Y, F84Y, A85G, V86T, K104R
B27: M205-A12 (Fab, V domains shown)
VH: B13 VH with H31Q, L33D, T35I, P53S, H57F, I59R
VL: B13 VL with E1D, V3Q, L4M, K40T, S66T, S68Y, F84Y, A85G, V86T, K104R
B28: M209-B01 (Fab, V domains shown)
VH: B13 VH with A104V, Y111N, Y114Q
VL: B13 VL with E1D, V3Q, L4M, K40T, S66T, S68Y, F84Y, A85G, V86T, K104R
B29: M208-D12 (Fab, V domains shown)
VH: B13 VH with V99L, F112Q, Y114I
VL: B13 VL with E1D, V3Q, L4M, K40T, S66T, S68Y, F84Y, A85G, V86T, K104R
B30: M207-A02 (Fab, V domains shown)
VH: B13 VH with V93L, S110I, Y111N, F112L
VL: B13 VL with E1D, V3Q, L4M, K40T, S66T, S68Y, F84Y, A85G, V86T, K104R
B31: M206-H04 (Fab, V domains shown)
VH: B13 VH with H31S, L33M, T35V, Y50S, H57Y, Y60Q
VL: B13 VL with E1D, V3Q, L4M, K40T, S66T, S68Y, F84Y, A85G, V86T, K104R
B32: M203-A01 (Fab, V domains shown)
VH: B13 VH with H31N, T35A, Y50W, S52V, H57Y, I59E
VL: B13 VL with E1D, V3Q, L4M, K40T, S66T, S68Y, F84Y, A85G, V86T, K104R
B33: M206-C03 (Fab, V domains shown)
VH: B13 VH with H31Q, L33M, T35V, Y50S, S52Y, P53S, H57N, I59P
VL: B13 VL with E1D, V3Q, L4M, K40T, S66T, S68Y, F84Y, A85G, V86T, K104R

molecular target: T1, human plasma kallikrein (human, UniProt P03952 20-390; P03952 391-638); assay: apparent inhibition constant (Ki,app) against human pKal, enzyme inhibition
T1 construct: also called pKal; human pKal
T1 sequence (P03952 20-390, chain 1 of 2): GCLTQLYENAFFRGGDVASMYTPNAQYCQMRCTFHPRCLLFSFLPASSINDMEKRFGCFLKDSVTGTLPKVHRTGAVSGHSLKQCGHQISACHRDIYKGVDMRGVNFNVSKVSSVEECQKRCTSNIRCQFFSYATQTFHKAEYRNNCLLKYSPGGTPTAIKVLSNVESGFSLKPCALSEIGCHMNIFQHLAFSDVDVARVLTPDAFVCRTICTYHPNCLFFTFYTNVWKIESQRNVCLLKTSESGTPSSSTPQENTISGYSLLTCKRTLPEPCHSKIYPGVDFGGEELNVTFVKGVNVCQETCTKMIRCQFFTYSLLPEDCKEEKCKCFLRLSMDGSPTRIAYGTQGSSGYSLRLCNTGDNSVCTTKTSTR
T1 sequence (P03952 391-638, chain 2 of 2): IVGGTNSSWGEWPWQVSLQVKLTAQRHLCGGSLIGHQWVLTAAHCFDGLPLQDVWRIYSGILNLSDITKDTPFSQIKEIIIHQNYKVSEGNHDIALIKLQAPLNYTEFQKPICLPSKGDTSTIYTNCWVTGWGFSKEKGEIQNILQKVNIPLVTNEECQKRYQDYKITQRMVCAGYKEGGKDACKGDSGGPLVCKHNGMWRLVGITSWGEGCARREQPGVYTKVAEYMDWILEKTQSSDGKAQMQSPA

Binder	Ki
B1	36 nM
B2	2.1 nM
B3	1.3 nM
B4	0.35 nM
B5	0.1 nM
B6	8.6 nM
B7	0.9 nM
B8	1.3 nM
B9	3.6 nM
B10	0.7 nM
B11	5.9 nM
B12	54 nM
B13	0.2 nM
B14	< 100 nM
B15	105 nM

molecular target: T1, human plasma kallikrein; assay: ELISA, biotinylated plasma kallikrein coated on microtiter plate, signal divided by streptavidin background
Text: Abbreviations used: "T/B" is the ELISA signal obtained using of the "target" (biotinylated plasma kallikrein) divided by the ELISA signal of the "background" (streptavidin); both of which were coated on microtiter plates. "nd" is not determined. The symbol "q" refers to the amber suppressible stop codon (TAG), which is translated as glutamine (Q) in strains of *E. coli* such as the TG1 cells that were used to express the Fab fragments.

Binder	Human pKal ELISA (T/B)
B1	45.7 ratio of ELISA signal on target to background (streptavidin)
B11	39.9 ratio of ELISA signal on target to background (streptavidin)
B12	4.1 ratio of ELISA signal on target to background (streptavidin)
B14	39.2 ratio of ELISA signal on target to background (streptavidin)
B15	5.4 ratio of ELISA signal on target to background (streptavidin)

molecular target: human plasma kallikrein (human, UniProt P03952 20-390; P03952 391-638); assay: cell-based or functional assay
Target sequence in this assay (P03952 20-390, chain 1 of 2): as the sequence (P03952 20-390, chain 1 of 2) above
Target sequence in this assay (P03952 391-638, chain 2 of 2): as the sequence (P03952 391-638, chain 2 of 2) above

Binder	% inhibition at 10 nM
B16	77.1%
B17	58.6%
B18	74.8%
B19	69.1%
B20	67.2%
B21	61.4%
B22	74.8%
B23	76.1%
B24	74.7%
B25	71.1%
B26	68.8%
B27	58.8%
B28	47%
B29	43.7%
B30	76.6%
B31	19%
B32	51.4%
B33	65.5%
